Assay results: US6060595

Biological target: HBV 21 kDa viral core protein (p21) (human hepatitis B virus (HBV))

“Met-p22 (precore protein lacking the signal peptide sequence and having instead an initial methionine), expressed from pCMVKM22” showed an HBV DNA replication, titration of plasmid molar ratios of 15 fold.
